Measured values: publication PMC8392704, “Small Hexokinase 1 Peptide against Toxic SOD1 G93A Mitochondrial Accumulation in ALS Rescues the ATP-Related Respiration” (Biomedicines, 2021)
Primed or numbered codes have the meaning given here. Where no end group is shown, it is not given here. FITC′ = not defined here

Target: T1, Recombinant 6xHis-tagged human VDAC1 (Voltage-Dependent Anion Channel 1) (human, UniProt P21796 1-283)
T1 construct: Voltage-Dependent Anion selective Channel 1 (VDAC1), human; PDB 6G6U is the cited crystal structure of human VDAC1, used only for docking; also called mitochondrial porin; porin; not shown: His6, C-terminal, kept
Assay: pull-down + SEC; 1 uM C-terminal His-tagged VDAC1 immobilised on Ni2+-Sepharose beads, incubated with 1 uM NHK1-FITC for 24 h; unbound peptide washed off; eluted with 200 mM imidazole; eluate loaded on Superdex200 and the complex detected by FSEC (ex/em 494/518 nm), with the VDAC1 profile at 280 nm
Details: both partners purified

T1 sequence (P21796 whole entry): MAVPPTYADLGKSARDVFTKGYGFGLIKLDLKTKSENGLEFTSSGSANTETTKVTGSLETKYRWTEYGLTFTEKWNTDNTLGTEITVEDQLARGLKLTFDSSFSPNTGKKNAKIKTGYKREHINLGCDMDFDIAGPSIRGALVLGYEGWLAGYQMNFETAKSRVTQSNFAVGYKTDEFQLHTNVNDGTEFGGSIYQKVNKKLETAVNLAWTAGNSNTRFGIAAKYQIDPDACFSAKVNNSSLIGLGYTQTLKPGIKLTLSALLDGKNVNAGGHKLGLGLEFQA

binding result: binds
B1: NHK1-FITC peptide (FITC-labeled NHK1, residues 2-12 of human HK1) (peptide)
peptide: IAAQLLAYYFT-{FITC′}
notes: hexokinase 1 (HK1), human, amino acids 2-12; also called FITC-NHK1; NHKI; source: synthetic peptide, produced by Proteogenix
